Measured values from patent publication US20240002505A1 (NANJING IASO BIOTECHNOLOGY, published 2024).
Positions count from the first letter of the chain named.

T1: CD5 antigen (Octet affinity determination, Example 8) (UniProt P06127 25-372, limits assumed)
T1 sequence (looked up): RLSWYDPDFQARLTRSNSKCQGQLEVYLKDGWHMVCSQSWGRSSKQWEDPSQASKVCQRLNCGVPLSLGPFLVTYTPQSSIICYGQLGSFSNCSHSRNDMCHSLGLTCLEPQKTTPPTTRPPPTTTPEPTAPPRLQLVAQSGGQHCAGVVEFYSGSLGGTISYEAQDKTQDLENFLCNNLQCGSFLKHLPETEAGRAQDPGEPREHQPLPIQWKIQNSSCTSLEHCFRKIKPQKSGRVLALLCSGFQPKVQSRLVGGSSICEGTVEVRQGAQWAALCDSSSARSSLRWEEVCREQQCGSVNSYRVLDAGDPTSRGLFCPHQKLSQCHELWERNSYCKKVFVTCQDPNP

T2: human CD5 on the cell surface (human, UniProt P06127 25-495)
T2 construct: whole, on cells; One molecule for CD5 on all cell lines; also called natural CD5 on the cell membrane; CD5 antigen on Jurkat, CCRF-CEM, MOLT4 cells
T2 sequence (looked up): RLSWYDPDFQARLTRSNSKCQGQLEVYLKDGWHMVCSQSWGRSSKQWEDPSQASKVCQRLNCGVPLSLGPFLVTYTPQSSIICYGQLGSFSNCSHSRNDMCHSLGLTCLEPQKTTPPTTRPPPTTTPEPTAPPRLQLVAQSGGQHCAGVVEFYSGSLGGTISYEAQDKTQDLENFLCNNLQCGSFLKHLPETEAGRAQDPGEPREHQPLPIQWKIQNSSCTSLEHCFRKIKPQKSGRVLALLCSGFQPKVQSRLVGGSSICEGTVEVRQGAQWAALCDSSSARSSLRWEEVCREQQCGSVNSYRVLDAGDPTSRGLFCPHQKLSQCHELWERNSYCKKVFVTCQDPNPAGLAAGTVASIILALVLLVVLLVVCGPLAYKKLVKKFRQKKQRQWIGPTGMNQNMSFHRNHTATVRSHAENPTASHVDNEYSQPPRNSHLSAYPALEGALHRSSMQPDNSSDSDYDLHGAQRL

T3: Biotinylated Recombinant human BAFFR Protein (Kactus, BAF-HM40RB) (human, UniProt Q96RJ3 7-71, limits assumed, biotinylated)
T3 construct: Non-related control antigen; also called Kactus-BAFFR-his-Bio; not shown: his tag
T3 sequence (looked up): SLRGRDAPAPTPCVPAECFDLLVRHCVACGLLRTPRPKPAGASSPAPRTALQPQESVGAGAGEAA

T4: Recombinant biotinylated Human CD19 Protein-Fc (Kactus, CD2-HE121) (human, UniProt P15391 20-291, biotinylated)
T4 construct: Control antigen; also called CD19-Fc-Bio; Kactus-CD19-FC-Bio; not shown: Fc tag
T4 sequence (looked up): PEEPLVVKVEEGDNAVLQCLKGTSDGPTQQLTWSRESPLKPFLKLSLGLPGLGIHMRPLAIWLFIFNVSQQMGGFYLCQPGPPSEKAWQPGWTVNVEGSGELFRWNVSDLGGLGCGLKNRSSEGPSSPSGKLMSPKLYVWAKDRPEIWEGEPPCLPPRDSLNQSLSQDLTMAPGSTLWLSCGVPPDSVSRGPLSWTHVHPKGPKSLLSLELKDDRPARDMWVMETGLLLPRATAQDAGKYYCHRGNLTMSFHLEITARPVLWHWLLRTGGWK

B1: Clone 35 anti-CD5 IgG (antibody, V domains shown)
VH: QVQLVESGGGLVQPGGSLRLSCAASGFTFSSYAMSWVRQTPGKGLEWVSTITDSGDITYYTASVQGRFTISRDNSKNTLYLQMNSLRAEDTAVYYCARMSSHWYFSADYWGQGTLVTVSS
VL: QSVLTQPPSVSAAPGQKVTISCSGSSSNIGNNYVSWYQQLPGTAPKLLIYDNNKRPSGIPDRFSGSKSGTSATLGITGLQTGDEADYYCGTWDSSLSAVVFGGGTKLTVLG
notes: The VH entry as printed begins with MA carried over from the scFv
B2: Clone 32 anti-CD5 IgG (antibody, V domains shown)
VH: QVQLVESGGGLVKPGGSLRLSCAASGFTFSSYSMNWVRQAPGKGLEWVSSISSSSSYIYYADSVKGRFTISRDNAKNSLYLQMNSLRAEDTAVYYCARGNPWYGVDYWGQGTLVTVSS
VL: B1 VL with S26N, L47R, T91I, S97D, V99Y, G103T, L107V
B3: phage monoclone #10 (scFv)
scFv: QSVVTQPPSVSGAPGQRVTISCTGSSSNIGAGYDVHWYQQLPGTAPKLLIYGNINRPSGVPDRFSGSKSGTSASLAITGLQAEDEADYYCGTWDNSLSAHYVFGTGTKVTVLGSRGGGGSGGGGSGGGGSLEEVQLLESGGGLVKPGGSLRLSCAASGFTFNNYTMNWVRQAPGKGLEWVSSISSSSSYIYYADSVKGRFTISRDNAKNSLFLQMNSLRGEDTAVYYCARYFSGSAGDYWGQGTLVTVSS
notes: also called scFv10
B4: Clone 10 anti-CD5 IgG (antibody, V domains shown)
VH: EVQLLESGGGLVKPGGSLRLSCAASGFTFNNYTMNWVRQAPGKGLEWVSSISSSSSYIYYADSVKGRFTISRDNAKNSLFLQMNSLRGEDTAVYYCARYFSGSAGDYWGQGTLVTVSS
VL: QSVVTQPPSVSGAPGQRVTISCTGSSSNIGAGYDVHWYQQLPGTAPKLLIYGNINRPSGVPDRFSGSKSGTSASLAITGLQAEDEADYYCGTWDNSLSAHYVFGTGTKVTVLG
B5: H65 anti-CD5 IgG (antibody, V domains shown)
VH: QIQLVQSGPELKKPGETVKISCKASGYTFTNYGMNWVKQAPGKGLRWMGWINTHTGEPTYADDFKGRFAFSLETSASTAYLQINNLKNEDTATYFCTRRGYDWYFDVWGAGTTVTVSS
VL: DIKMTQSPSSMYASLGERVTITCKASQDINSYLSWFHHKPGKSPKTLIYRANRLVDGVPSRFSGSGSGQDYSLTISSLDYEDMGIYYCQQYDESPWTFGGGTKLEIK
B6: phage monoclone #7 (scFv)
scFv: QSVVTQPPSVSAAPGQKATISCSGSSSNIGNNDVSWYQQLPGTAPKLLIQDNDKRPSGIPDRFSGSKSGTSATLGITGLQTGDEADYYCAVWDSSLSAAVFGPGTKVTVLGSRGGGGSGGGGSGGGGSLEMAEVQLVQSGAEVKKPGESLKISCKGSGYSFTSYWIGWVRQMPGKGLEWMGIIYPDDSDTTYSPSFQGQVTMSVDKSISTAYLQWNSLQASDTAMYYCARMSLTSYLATDGWGQGTLVTVSS
notes: also called scFv7
B7: phage monoclone #9 (scFv)
scFv: QPVLTQPPSVSGSPGQSVTISCTGTSDDIGNYKRVSWYQQPPGTAPKLMIYEVTNRPPGVPNRFSGSKSGNTASLTISGLQAEDEADYYCSSYASGDTYVFGTGTKVTVLGSRGGGGSGGGGSGGGGSLEQVQLVQSGAEVEKPGASVKISCKASTYTFTNYYIHWVRQAPGQGLEWMGMINPSGDTTSYAQKFQGRVTMTRDTSTSTVYMELSSLRSEDTAVYYCARLSWYWGGSFDDWGQGTLVTVSS
notes: also called scFv9
B8: phage monoclone #32 (scFv)
scFv: QVQLVESGGGLVKPGGSLRLSCAASGFTFSSYSMNWVRQAPGKGLEWVSSISSSSSYIYYADSVKGRFTISRDNAKNSLYLQMNSLRAEDTAVYYCARGNPWYGVDYWGQGTLVTVSSTSGGGGSGGGGSGGGGSELQSVLTQPPSVSAAPGQKVTISCSGSNSNIGNNYVSWYQQLPGTAPKRLIYDNNKRPSGIPDRFSGSKSGTSATLGITGLQTGDEADYYCGIWDSSLDAYVFGTGTKVTVLG
notes: also called scFv32
B9: phage monoclone #6 (scFv)
scFv: NFMLTQPHSVSESPGKTVTISCTGNSGSIARNYVQWYQQRPGSAPTMLIYEDNRRPSGVPDRFSGSIDSSSNSASLTISGLKTEDEADYYCQSYDDNTSWVFGGGTKLTVLGSRGGGGSGGGGSGGGGSLEMAEVQLVQSGAEVKKPGSSVKVSCKASGGTFSSNAITWVRQAPGQGLEWMGGIIPMFGTTDYAQKFQGRVTMTADESTSTAYMELRSLRSEDTAVYYCARDGGGRHPYYYYGMDVWGQGTTVTVSS
notes: also called scFv6
B10: phage monoclone #35 (scFv)
scFv: QSVLTQPPSVSAAPGQKVTISCSGSSSNIGNNYVSWYQQLPGTAPKLLIYDNNKRPSGIPDRFSGSKSGTSATLGITGLQTGDEADYYCGTWDSSLSAVVFGGGTKLTVLGSRGGGGSGGGGSGGGGSLEMAQVQLVESGGGLVQPGGSLRLSCAASGFTFSSYAMSWVRQTPGKGLEWVSTITDSGDITYYTASVQGRFTISRDNSKNTLYLQMNSLRAEDTAVYYCARMSSHWYFSADYWGQGTLVTVSS
notes: also called scFv35

Tests used:
[1] = molecular target: T1, CD5 antigen (Octet affinity …); assay: BLI (Octet), IgG loaded on the biosensor, CD5 antigen 400 to 12.5 nM, 1:1 model
[2] = molecular target: T2, human CD5 on the cell surface; assay: phage FACS on CCRF-CEM cells (CD5 positive), anti-M13 + FITC anti-mouse IgG, median of FITC-A
[3] = molecular target: T5, Streptavidin (Pierce, 21125) (UniProt P22629 37-163, limits assumed); assay: phage ELISA
T5 construct: Non-related control antigen; also called SA

[4] = molecular target: T3, Biotinylated Recombinant human BAFFR …; assay: phage ELISA
[5] = molecular target: T4, Recombinant biotinylated Human CD19 …; assay: phage ELISA
[6] = molecular target: T2, human CD5 on the cell surface; assay: phage FACS on Jurkat cells (CD5 positive), anti-M13 + FITC anti-mouse IgG, median of FITC-A

T5 sequence (P22629 37-163 limits assumed): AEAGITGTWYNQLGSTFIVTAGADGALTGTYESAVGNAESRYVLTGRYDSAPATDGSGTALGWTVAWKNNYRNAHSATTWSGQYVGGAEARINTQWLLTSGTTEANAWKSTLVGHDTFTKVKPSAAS

| Binder | Kd [1] [nM] | koff [1] [s⁻¹] | kon [1] [M⁻¹ s⁻¹] | Median (B1-A) [2] | binding result [3] | binding result [4] | binding result [5] | Median (B1-A) [6] |
| --- | --- | --- | --- | --- | --- | --- | --- | --- |
| B1 | 13.6 | 0.000382 | 28100 |  |  |  |  |  |
| B2 | 28.3 | 0.00217 | 76500 |  |  |  |  |  |
| B3 |  |  |  | 17.1 | no binding | no binding | no binding | 31.6 |
| B4 | 4.49 | 0.00143 | 318000 |  |  |  |  |  |
| B5 | 2.25 | 0.000813 | 361000 |  |  |  |  |  |
| B6 |  |  |  | 12.4 | no binding | no binding | no binding | 28.3 |
| B7 |  |  |  | 3.37 | no binding | no binding | no binding | 12.8 |
| B8 |  |  |  |  | no binding | no binding | no binding |  |
| B9 |  |  |  | 1.71 | no binding | no binding | no binding | 71.8 |
| B10 |  |  |  |  | no binding | no binding | no binding |  |
